For one substance, SPECIFIC ACTIVITY FOR HEM G. PROTEIN (ADP-ribosyltransferase, relative) results are on record in patent publication US5874287.

This test has as its target G protein alpha subunit of human erythrocyte membranes (human) (UniProt P63092).

“rCTXA1/T1 (CTXA1 truncated at Trp179) (enzyme)” gave an SPECIFIC ACTIVITY FOR HEM G. PROTEIN (ADP-ribosyltransferase, relative) below 0.01.
